Data: paper PMC6868365 (Nucleic Acids Research, 2019)
Positions count from the first letter of the chain named.

What was measured:
DnaA Q208A = molecular target: T1, DnaA Q208A (Escherichia coli, UniProt P03004 1-467, Q208A); assay: native gel or EMSA
T1 sequence (looked up): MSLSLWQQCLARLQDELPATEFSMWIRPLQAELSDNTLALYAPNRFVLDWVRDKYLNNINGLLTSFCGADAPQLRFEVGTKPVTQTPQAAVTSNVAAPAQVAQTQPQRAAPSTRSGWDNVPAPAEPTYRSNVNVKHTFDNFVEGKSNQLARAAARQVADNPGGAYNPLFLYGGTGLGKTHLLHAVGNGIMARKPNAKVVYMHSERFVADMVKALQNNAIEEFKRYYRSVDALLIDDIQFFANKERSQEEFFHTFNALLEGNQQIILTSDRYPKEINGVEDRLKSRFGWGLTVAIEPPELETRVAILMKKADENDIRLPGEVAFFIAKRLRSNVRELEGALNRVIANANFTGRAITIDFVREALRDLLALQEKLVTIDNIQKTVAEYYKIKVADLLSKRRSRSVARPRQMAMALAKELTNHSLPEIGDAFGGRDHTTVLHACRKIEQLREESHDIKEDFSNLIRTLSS

DnaA L290A = molecular target: T2, DnaA L290A (Escherichia coli, UniProt P03004 1-467, L290A); assay: native gel or EMSA
T2 sequence (looked up): T1 sequence (looked up) with A208Q, L290A

binding result (DnaA Q208A): binds
binding result (DnaA L290A): binds
B1: DiaA (DnaA initiator-associating protein) (natural protein, Escherichia coli, UniProt P66817 1-196, looked up)
chain: MQERIKACFTESIQTQIAAAEALPDAISRAAMTLVQSLLNGNKILCCGNGTSAANAQHFAASMINRFETERPSLPAIALNTDNVVLTAIANDRLHDEVYAKQVRALGHAGDVLLAISTRGNSRDIVKAVEAAVTRDMTIVALTGYDGGELAGLLGPQDVEIRIPSHRSARIQEMHMLTVNCLCDLIDNTLFPHQDD
